Test results from patent US20230075633A1 (SHANDONG BOAN BIOTECHNOLOGY, published 2023).
Where two headings read alike, the source gives them in different places.

T1: human CEA (human, UniProt P06731 35-702)
T1 sequence (looked up): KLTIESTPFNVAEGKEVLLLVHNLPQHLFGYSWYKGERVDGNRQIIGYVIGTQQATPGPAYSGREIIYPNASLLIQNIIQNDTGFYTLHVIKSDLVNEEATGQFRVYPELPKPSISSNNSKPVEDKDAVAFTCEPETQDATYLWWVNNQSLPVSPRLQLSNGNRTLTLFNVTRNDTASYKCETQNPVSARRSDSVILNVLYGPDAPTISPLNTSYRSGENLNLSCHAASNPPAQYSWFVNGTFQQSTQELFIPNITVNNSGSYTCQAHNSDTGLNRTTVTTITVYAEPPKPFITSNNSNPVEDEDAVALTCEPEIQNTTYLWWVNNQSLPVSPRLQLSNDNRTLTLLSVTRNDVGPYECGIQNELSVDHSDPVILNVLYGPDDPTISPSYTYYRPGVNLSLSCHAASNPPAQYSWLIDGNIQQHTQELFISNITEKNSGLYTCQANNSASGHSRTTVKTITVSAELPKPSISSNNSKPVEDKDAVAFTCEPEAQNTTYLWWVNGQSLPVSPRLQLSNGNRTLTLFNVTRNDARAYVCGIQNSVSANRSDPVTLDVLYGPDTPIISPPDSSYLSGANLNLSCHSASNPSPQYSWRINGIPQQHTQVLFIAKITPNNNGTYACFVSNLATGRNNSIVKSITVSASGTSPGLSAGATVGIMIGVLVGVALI

T2: Cynomolgus monkey CD3 protein (cynomolgus monkey, UniProt Q95LI5 22-117)
T2 sequence (looked up): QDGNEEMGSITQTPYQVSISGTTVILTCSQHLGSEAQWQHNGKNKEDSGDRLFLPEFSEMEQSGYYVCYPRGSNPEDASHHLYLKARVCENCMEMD


Experiments:
[1] = target: T1, human CEA; test: cell-based or functional assay
[2] = target: T3, human CD3 (human, UniProt P07766 23-207); test: cell-based or functional assay
T3 sequence (P07766 23-207): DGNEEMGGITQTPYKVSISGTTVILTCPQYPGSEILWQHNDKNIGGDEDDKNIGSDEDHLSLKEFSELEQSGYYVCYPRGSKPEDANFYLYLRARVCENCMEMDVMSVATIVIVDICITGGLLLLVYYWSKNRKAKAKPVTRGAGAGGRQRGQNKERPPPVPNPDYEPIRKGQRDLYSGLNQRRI

[3] = target: T1, human CEA; test: cell-based or functional assay; remark: listed apart in the source
[4] = target: T2, Cynomolgus monkey CD3 protein; test: ELISA on cynomolgus monkey CD3 protein, curve fit
[5] = target: T3, human CD3; test: cell-based or functional assay; remark: listed apart in the source

| Binder | lysis of LS-174T cells by PBMC: Bottom [1] | lysis of LS-174T cells by PBMC: LogEC50 [1] | lysis of LS-174T cells by PBMC: Span [1] | lysis of LS-174T cells by PBMC: Top [1] | NFAT-luciferase in Jurkat cells: Bottom [2] | NFAT-luciferase in Jurkat cells: LogEC50 [2] | NFAT-luciferase in Jurkat cells: Span [2] | NFAT-luciferase in Jurkat cells: Top [2] | lysis of KATO III cells by PBMC: Bottom [3] | lysis of KATO III cells by PBMC: LogEC50 [3] | lysis of KATO III cells by PBMC: Span [3] | lysis of KATO III cells by PBMC: Top [3] | Bottom (best-fit) [4] | LogEC50 [4] | Span (best-fit) [4] | Top (best-fit) [4] | NFAT-luciferase in Jurkat cells: Bottom [5] | NFAT-luciferase in Jurkat cells: LogEC50 [5] | NFAT-luciferase in Jurkat cells: Span [5] | NFAT-luciferase in Jurkat cells: Top [5] |
| --- | --- | --- | --- | --- | --- | --- | --- | --- | --- | --- | --- | --- | --- | --- | --- | --- | --- | --- | --- | --- |
| CEA/CD3 parental BsAb (bispecific antibody, V domains shown, also called hT84.66/SP34 bispecific antibody; CEA/CD3 parental bispecific antibody; copies: 2 + 2 + 2 + 2) VH 1: EVQLVESGGGLVQPGGSLRLSCAASGFNIKDTYMHWVRQAPGKGLEWVARIDPAQGNTKYADSVKGRFTISADTSKNTAYLQMNSLRAEDTAVYYCAPFGYYVSDYAMAYWGQGTLVTVSS VL 1: DIQLTQSPSSLSASVGDRVTITCRAGESVDIFGVGFLHWYQQKPGKAPKLLIYRASNLESGVPSRFSGSGSRTDFTLTISSLQPEDFATYYCQQTNEDPYTFGQGTKVEIK VH 2: not shown VL 2: not shown | 13.8 | -2.69 | 91.7 | 106 | -1040 | -0.58 | 121000 | 120000 | 60.1 | -1.85 | 53 | 113 | 0.0164 | -1.65 | 4.09 | 4.1 | 39.9 | -1.52 | 1280 | 1320 |
| CEA/CD3OPT1a3b2b2 (bispecific antibody) chain 1: EVQLVESGGGLVQPGGSLRLSCAASGFNIKDTYMHWVRQAPGKGLEWVARIDPAQGNTKYADSVKGRFTISADTSKNTAYLQMNSLRAEDTAVYYCAPFGYYVSDYAMAYWGQGTLVTVSS chain 2: DIQLTQSPSSLSASVGDRVTITCRAGESVDIFGVGFLHWYQQKPGKAPKLLIYRASNLESGVPSRFSGSGSRTDFTLTISSLQPEDFATYYCQQTNEDPYTFGQGTKVEIK chain 3: EVQLVESGGGLVKPGGSLKLSCAASGFTFSTYAMNWVRQAPGKGLEWVARIRSKYNNYATYFADSVKDRFTISRDDSKNTAYLQMNNLRTEDTAVYYCVRHGNWGNSYISYWAYWGQGTTVTVSSQSVLTQPPSVSAAPGQRVTISCSGSTGAVTSGYYPNWYQQLPGTAPRLLIGGTKFLAPGTPDRFSGSSKSTSAALAISGVQSEDEADYYCALWYSNRWVFGGGTKLTVLG | – | – | – | – | 3450 | -0.0275 | 2670 | 6120 | – | – | – | – | – | – | – | – | – | – | – | – |
| CEA/CD3OPT1a3b2a (bispecific antibody, V domains shown, Same format as m1; also called OPT SP34 1a3b2a; copies: 2 + 2 + 2 + 2) VH 1: EVQLVESGGGLVQPGGSLRLSCAASGFNIKDTYMHWVRQAPGKGLEWVARIDPAQGNTKYADSVKGRFTISADTSKNTAYLQMNSLRAEDTAVYYCAPFGYYVSDYAMAYWGQGTLVTVSS VL 1: DIQLTQSPSSLSASVGDRVTITCRAGESVDIFGVGFLHWYQQKPGKAPKLLIYRASNLESGVPSRFSGSGSRTDFTLTISSLQPEDFATYYCQQTNEDPYTFGQGTKVEIK VH 2: EVQLVESGGGLVKPGGSLKLSCAASGFTFSTYAMNWVRQAPGKGLEWVARIRSNYNNYATYYADSVKDRFTISRDDSKNTAYLQMNNLRTEDTAVYYCVRHGNWGNSYISYWAYWGQGTTVTVSS VL 2: not shown | 11.3 | -1.92 | 93.6 | 105 | 3100 | -0.27 | 10700 | 13800 | 63.8 | -0.332 | 34.6 | 98.5 | 0.00337 | -1.81 | 4.06 | 4.06 | – | – | – | – |
| CEA/CD3OPT3a (bispecific antibody, V domains shown, Same format as m1; copies: 2 + 2 + 2 + 2) VH 1: EVQLVESGGGLVQPGGSLRLSCAASGFNIKDTYMHWVRQAPGKGLEWVARIDPAQGNTKYADSVKGRFTISADTSKNTAYLQMNSLRAEDTAVYYCAPFGYYVSDYAMAYWGQGTLVTVSS VL 1: DIQLTQSPSSLSASVGDRVTITCRAGESVDIFGVGFLHWYQQKPGKAPKLLIYRASNLESGVPSRFSGSGSRTDFTLTISSLQPEDFATYYCQQTNEDPYTFGQGTKVEIK VH 2: not shown VL 2: not shown | 13.1 | -2.86 | 92.2 | 105 | – | – | – | – | 54.7 | -2.21 | 48.1 | 103 | 0.00466 | -1.94 | 4.01 | 4.02 | 52.8 | -1.66 | 1400 | 1460 |
| CEA/CD3OPT1a3b (bispecific antibody, V domains shown, Same format as m1; also called OPT SP34 1a3b; copies: 2 + 2 + 2 + 2) VH 1: EVQLVESGGGLVQPGGSLRLSCAASGFNIKDTYMHWVRQAPGKGLEWVARIDPAQGNTKYADSVKGRFTISADTSKNTAYLQMNSLRAEDTAVYYCAPFGYYVSDYAMAYWGQGTLVTVSS VL 1: DIQLTQSPSSLSASVGDRVTITCRAGESVDIFGVGFLHWYQQKPGKAPKLLIYRASNLESGVPSRFSGSGSRTDFTLTISSLQPEDFATYYCQQTNEDPYTFGQGTKVEIK VH 2: EVQLVESGGGLVKPGGSLKLSCAASGFTFSTYAMNWVRQAPGKGLEWVARIRSKYNNYATYYADSVKDRFTISRDDSKNTAYLQMNNLRTEDTAVYYCVRHGNWGNSYISYWAYWGQGTTVTVSS VL 2: not shown | 12.1 | -2.69 | 96.6 | 109 | 1600 | -0.102 | 62800 | 64500 | 64.6 | -0.946 | 39.4 | 104 | 0.00304 | -1.84 | 4.03 | 4.03 | – | – | – | – |
| CEA/CD3OPT3 (bispecific antibody, V domains shown) VH 1: EVQLVESGGGLVQPGGSLRLSCAASGFNIKDTYMHWVRQAPGKGLEWVARIDPAQGNTKYADSVKGRFTISADTSKNTAYLQMNSLRAEDTAVYYCAPFGYYVSDYAMAYWGQGTLVTVSS VL 1: DIQLTQSPSSLSASVGDRVTITCRAGESVDIFGVGFLHWYQQKPGKAPKLLIYRASNLESGVPSRFSGSGSRTDFTLTISSLQPEDFATYYCQQTNEDPYTFGQGTKVEIK VH 2: EVQLVESGGGLVKPGGSLKLSCAASGFTFNKYAMNWVRQAPGKGLEWVARIRSKYNNYATYYADSVKDRFTISRDDSKNTAYLQMNNLRTEDTAVYYCVRHGQWGNSYISYWAYWGQGTTVTVSS VL 2: not shown | – | – | – | – | – | – | – | – | – | – | – | – | – | – | – | – | 119 | -5.66 | -41.4 | 78 |
| CEA/CD3OPT2 (bispecific antibody, V domains shown) VH 1: EVQLVESGGGLVQPGGSLRLSCAASGFNIKDTYMHWVRQAPGKGLEWVARIDPAQGNTKYADSVKGRFTISADTSKNTAYLQMNSLRAEDTAVYYCAPFGYYVSDYAMAYWGQGTLVTVSS VL 1: DIQLTQSPSSLSASVGDRVTITCRAGESVDIFGVGFLHWYQQKPGKAPKLLIYRASNLESGVPSRFSGSGSRTDFTLTISSLQPEDFATYYCQQTNEDPYTFGQGTKVEIK VH 2: EVQLVESGGGLVKPGGSLKLSCAASGFTFNKYAMNWVRQAPGKGLEWVARIRSNYNNYATTFADSVKDRFTISRDDSKNTAYLQMNNLRTEDTAVYYCVRHGNFGNSYISYWAYWGQGTTVTVSS VL 2: not shown | – | – | – | – | – | – | – | – | – | – | – | – | – | – | – | – | 88.9 | -2.09 | -30.4 | 58.5 |
